# Test results taken from the RNAGym collection of RNA variant scans (doi:10.1073/pnas.2313332121).
# B1: TPR t1 (parent)
# chain: GACCAAUCUGCCCUCAGAGCUCGAGAACAUCUUCGGAUGCAGAGGAGGCAGGCUUCGGUGGCGCGAUAGCGCCAACGUCCUCAACCUCCAAUGCAUCCCACCACAUGAUGAUGCCUGAAGAGCCUUGGUUUUUUG
# Variants of: B1
# Assay: polymerase ribozyme fitness, log enrichment relative to wild type (log ratio); higher = more active; in vitro selection for triplet polymerase activity
# Procedure, shortened: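 Fitness measures genotype enrichment against wild-type enrichment on a logarithmic scale, with inverse-variance-weighted averaging of replicates. The logarithm is base 2, and genotypes were kept only with ≥10 input reads and ≥1 read per output in Illumina sequencing. The sequenced libraries came from one triplicate in vitro selection round, including frozen incubation at −7 °C, of PCR-built, transcribed mutant libraries of each subunit of a heterodimeric triplet polymerase ribozyme.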
row,Variant,polymerase ribozyme fitness (log ratio)
1,GACCAAUCUGCCCUCAGAGCUCGAGAACAUCUUCGGAUGCAGAGGAGGCUGACUUCGGUGGCGCGAUAGCGCCAACGUCCUCAUCCUCCAAUGCAUCCCACCACAUGAUGAUGCCUGAAGAGCCUUGUUUUUUUG [A50U G52A A84U G128U],-5.16
2,GACCAAUCUGCCCUCAGAGCUCGAGAACAUCUUCGGAUGCAGAGGAGGCUGCCUUCGGUGGCGCGAUAGCGCCAACUUCCUCAACCUCCAAUGCAUCCCACCACAUGAUGAUGCCUGAAGAGCCUUGGUCUUUUG [A50U G52C G77U U130C],-3.17
3,GACCAAUCUGCCCUCAGAGCUCGAGAACAUCUUCGGAUGCAGAGGAGGCUGGCUUCGAUGGCGCGAUAGCGCCAACGCCCUCAACCUCCAAUGCAUCCCACCGCAUGAGGAUGCCUGAAGAGCCUUGGUUUUUUG [A50U G58A U78C A103G U109G],-5.98
4,GACCAAUCUGCCCUCAGAGCUCGAGAACAUCUUCGGAUGCAGAGGAGGCUGGCUUCGGUAGCGCGAUAGCGCCAACGUCCUCAACCUCCAAUACAUCCCACCACAUGAUGAUGCCUGAAGAGCCUUGGUUUUUUG [A50U G60A G93A],-1.39
5,GACCAAUCUGCCCUCAGAGCUCGAGAACAUCUUCGGAUGCAGAGGAGGCUGGCUUCGGUGCCGCGAUAGCGCCAACGUCCUCAACCUUCAAUGCAUCCCACCACAUGAUGAUCCCUGAAGAGCCUUGGUUUUUUG [A50U G61C C88U G113C],-5.11
6,GACCAAUCUGCCCUCAGAGCUCGAGAACAUCUUCGGAUGCAGAGGAGGCUGGCUUCGGUGUCGCGAUAGCGCCAACGUCCUCAACUUCCAAUGCAUCCCACCACAUGAUGAUGCCUGAAGAGCCUUGGUUUUUUG [A50U G61U C86U],-1.34
7,GACCAAUCUGCCCUCAGAGCUCGAGAACAUCUUCGGAUGCAGAGGAGGCUGGCUUCGGUGGCCCGAUAGCGCCAACGACCUCAACCUCCAAUGCAUCCCACCACAUGAUGACGCCGGACGAGCCUUGGUUUUUUG [A50U G63C U78A U112C U116G A119C],-6.63
8,GACCAAUCUGCCCUCAGAGCUCGAGAACAUCUUCGGAUGCAGAGGAGGCUGGCUUCGGUGGCCCGAUAGCGCCAACGUCCUCAACCUCCAAUGCAUCCCACCACAUGAUGAAGCCUGGAGAGCCUUGGUUUUUUG [A50U G63C U112A A118G],-2.37
9,GACCAAUCUGCCCUCAGAGCUCGAGAACAUCUUCGGAUGCAGAGGAGGCUGGCUUCGGUGGCUCGAUAGCGCCAACGUCCUCAACCUCCAAUGCAUCCCACCAAAUGAUGAUGCCUGAAGAGCCUUGGUUUUUUG [A50U G63U C104A],-5.48
10,GACCAAUCUGCCCUCAGAGCUCGAGAACAUCUUCGGAUGCAGAGGAGGCUGGCUUCGGUGGCGCGAUAACGCCAACGUCCUCAACCUCCAAUGCAUCCCACCACAUGAUGAUGCCUGAAGAGCCUUGGUUUUUUG [A50U G69A],-3.65
11,GACCAAUCUGCCCUCAGAGCUCGAGAACAUCUUCGGAUGCAGAGGAGGCUGGCUUCGGUGGCGCGAUAUCGCCAACGUCCCCAACCUCCAAUGCAUCCCACCACAUGAUGAUGACUGAAGAGCCUUGGUUUUUUG [A50U G69U U81C C114A],-2.1
12,GACCAAUCUGCCCUCAGAGCUCGAGAACAUCUUCGGAUGCAGAGGAGGCUGGCUUCGGUGGCGCGAUAGCGCCAACGUCCUCAACCUCCAAUACAUCCCACCACAUGAUGAUGCCUGAAGAGCCUUGGUUUUUUG [A50U G93A],-1.21
13,GACCAAUCUGCCCUCAGAGCUCGAGAACAUCUUCGGAUGCAGAGGAGGCUGGCUUCGGUGGCGCGAUAGCGCCAACGUCCUCAACCUCCAAUGCAUCCCACCACAUGAUGAUGCCUCAACAGCCUUGGUUUUUUG [A50U G117C G120C],-5.84
14,GACCAAUCUGCCCUCAGAGCUCGAGAACAUCUUCGGAUGCAGAGGAGGCUGGCUUCGGUGGCGCGAUAGCGCCAACGUCCUCAACCUCCAAUGCAUCCCACCACAUGAUGAUGCCUUAAGAGCCUUGGUUUUUUG [A50U G117U],-2.6
15,GACCAAUCUGCCCUCAGAGCUCGAGAACAUCUUCGGAUGCAGAGGAGGCUGGCUUCGGCGGCGCGAUAGCGCCAACGUCCUCAACCUCCAAUGCAUCCCACCACAUGAUGAUGCCUGAAGAGCCUUGGUUUUUUG [A50U U59C],-0.6
16,GACCAAUCUGCCCUCAGAGCUCGAGAACAUCUUCGGAUGCAGAGGAGGCUGGCUUCGGUGGCGCGAUAGCGCCAACGUCCACAACCUCCAAUGCAUCCCCCCACAUGAUGAUGCCUGAAGAGCCUUGGUUUUUUG [A50U U81A A100C],-1.2
17,GACCAAUCUGCCCUCAGAGCUCGAGAACAUCUUCGGAUGCAGAGGAGGCUGGCUUCGGUGGCGCGAUAGCGCCAACGUCCUCAACCUCCAAUGCAUCCCACCACAUGAUGAAGCCUGAAGAGCCCUGGUUUUUUG [A50U U112A U125C],-0.475
18,GACCAAUCUGCCCUCAGAGCUCGAGAACAUCUUCGGAUGCAGAGGAGGCUGGCUUCGGUGGCGCGAUAGCGCCAACGUCCUCAACCUCCAAUGCAUCCCACCACAUGAUGAUGCCAGAAGAGCCUUGGUUUUUUG [A50U U116A],-4.25
19,GACCAAUCUGCCCUCAGAGCUCGAGAACAUCUUCGGAUGCAGAGGAGGCAAGCUUCGGUGGCGCGUUAGCGCCAACGUCCUCAACCUCCAAUGCAUCCCACCAGUUGAUGAUGCCUGAAGGGCCUUGGUUUUUUG [G51A A66U C104G A105U A121G],-7.62
20,GACCAAUCUGCCCUCAGAGCUCGAGAACAUCUUCGGAUGCAGAGGAGGCAAGAUUCGGUGGCGCGAUAGCGCCAACGUCCUCAACCUCCAAUGCAUCCCACCACAUGAUGAUGCCUGAAGAGCCUUGGUUUUAUG [G51A C53A U133A],-2.17
21,GACCAAUCUGCCCUCAGAGCUCGAGAACAUCUUCGGAUGCAGAGGAGGCAAGCUUAGGUGGCGCGAUAGCGCCAACGUCCUCAACCUCCAAUACAUCCCACCACAUGAUGAUGUCUUAAGAGCCUUGGUUUUUUG [G51A C56A G93A C114U G117U],-6.47

row,Variant,polymerase ribozyme fitness (log ratio)
1,GACCAAUCUGCCCUCAGAGCUCGAGAACAUCUUCGGAUGCAGAGGAGGCAAGCUUGGGUGGCGCGAUAGCGCCAACGUCCUCAACCUCCAAUGCAUCCCACCACAUGAUGAUGCCUGAAGAGCUUUGGUUUUUUG [G51A C56G C124U],-1.06
2,GACCAAUCUGCCCUCAGAGCUCGAGAACAUCUUCGGAUGCAGAGGAGGCAAGCUUCGGUGGUGCGAUAGCGCCAACGUCCUCAACCUCCAAUGCAUCCCACCACAUGAUGAUGCCUGAAGAGCCUUGGUUUUUUG [G51A C62U],-2.43
3,GACCAAUCUGCCCUCAGAGCUCGAGAACAUCUUCGGAUGCAGAGGAGGCAAGCUUCGGUGGUGCGAUAGCGCCAACGUCCUCAACCUCCAAUGCAUCCCACCACAUGAUGAAUCCUGAAGAGCCUUGGUUUUUUG [G51A C62U U112A G113U],-4.77
4,GACCAAUCUGCCCUCAGAGCUCGAGAACAUCUUCGGAUGCAGAGGAGGCAAGCUUCGGUGGCGAGAUAGCGCCAACGUCCUCAACCUCCAAUGCAUCCCACCACAUGAUGAUGCCUGAAGAGCCUUGGUUUUUUG [G51A C64A],-6.96
5,GACCAAUCUGCCCUCAGAGCUCGAGAACAUCUUCGGAUGCAGAGGAGGCAAGCUUCGGUGGCGCGAUAGCGCCAACGUCCUCAAUCUCCAAUGCAUCCCACCACAUGAUGAUGCCUGAAGAGCCUUGGUUUUUUG [G51A C85U],-3.77
6,GACCAAUCUGCCCUCAGAGCUCGAGAACAUCUUCGGAUGCAGAGGAGGCAAGCUUCGGUGGCGCGAUAGCGCCAACGUCCUCAACUACCAAUGCAUCCCACCACAUGAUGAUCCCUGAAGAGCCUUGGUUUUUUG [G51A C86U U87A G113C],-6.8
7,GACCAAUCUGCCCUCAGAGCUCGAGAACAUCUUCGGAUGCAGAGGAGGCAAGCUUCGGUGGCGCGAUAGCGCCAACGUCCUCAACCUUCAAUGCAUCCCACCACAUGAUGAUGCCUGAAGAGCCUUGGUUUUUUG [G51A C88U],-2.93
8,GACCAAUCUGCCCUCAGAGCUCGAGAACAUCUUCGGAUGCAGAGGAGGCAAGCUUCGGUGGCGCGAUAGCGCCAACGUCCUCAACCUCCAAUGCAUCCUACCACAUGAUGAUGCCUGAAGAGCCUUGGUUUUUUG [G51A C99U],-7.64
9,GACCAAUCUGCCCUCAGAGCUCGAGAACAUCUUCGGAUGCAGAGGAGGCAAGCUUCGGUGGCGCGAUAGCGCCAACGUCCUCAACCUCCAAUGCAUCCCAUCACAUGAUGAUGCCUAAAGAGCCUUGGUUUUUUG [G51A C101U G117A],-4.58
10,GACCAAUCUGCCCUCAGAGCUCGAGAACAUCUUCGGAUGCAGAGGAGGCAAGCUUCCGUGGCGCGAUAGCGCCAACGUCCUCAACCUCCAAUGCAUCCCACCACAUGAUGAUGACUGAAGAGCCUUGGUUUUUUG [G51A G57C C114A],-3.38
11,GACCAAUCUGCCCUCAGAGCUCGAGAACAUCUUCGGAUGCAGAGGAGGCAAGCUUCGGUAGCGCGAUAGCGCCAACGUCCUCAACCUCCAAUGCAUCCCACCACAUGAUGAUGCCUGAAGAGCCUUGGUUUUUUG [G51A G60A],-1.34
12,GACCAAUCUGCCCUCAGAGCUCGAGAACAUCUUCGGAUGCAGAGGAGGCAAGCUUCGGUUGCGCGAUAGCGCCAACGUCCUCAACCUCCAAUGCAUCCCACCACAUGAUGAUACCAGAAGAGCCUUGGUUUUUUG [G51A G60U G113A U116A],-7.25
13,GACCAAUCUGCCCUCAGAGCUCGAGAACAUCUUCGGAUGCAGAGGAGGCAAGCUUCGGUGGCGCCAUAGCGCCAACGUCCUCAACCUCCAAUGCAUCCCACCACAUGAUGAUGGCUGAAGAGCCUUGGUUUUUUG [G51A G65C C114G],-6.09
14,GACCAAUCUGCCCUCAGAGCUCGAGAACAUCUUCGGAUGCAGAGGAGGCAAGCUUCGGUGGCGCGAUAGCGCCAACGUCCUCAACCUCCAAUGCAUCCCACCACAUGAUGAUCCCUGAAGAUCCUUGGUUUUUUU [G51A G113C G122U G135U],-7.38
15,GACCAAUCUGCCCUCAGAGCUCGAGAACAUCUUCGGAUGCAGAGGAGGCAAGCGUCGGUGGCGCGAUAGCGCGAACGUCCUCAACCUCCAAUGCAUCUCACCACAUGAUGAUGCCUGAAGAGCCUUGGUUUUUUG [G51A U54G C73G C98U],-5.39
16,GACCAAUCUGCCCUCAGAGCUCGAGAACAUCUUCGGAUGCAGAGGAGGCAAGCUUCGGUGGCGCGAUAGCGCCAACGUCCCCAACCUCCAAUGCAUUCCACCACAUGAUGAUGCGUGAAGAGCCUUGGUUUUUUG [G51A U81C C97U C115G],-5.02
17,GACCAAUCUGCCCUCAGAGCUCGAGAACAUCUUCGGAUGCAGAGGAGGCAAGCUUCGGUGGCGCGAUAGCGCCAACGUCCUCAACCACCAAUGCAUCCCAACACAUGAUGAUGCCUGAAGAGCCUUGGUUUUUUG [G51A U87A C101A],-4.9
18,GACCAAUCUGCCCUCAGAGCUCGAGAACAUCUUCGGAUGCAGAGGAGGCAAGCUUCGGUGGCGCGAUAGCGCCAACGUCCUCAACCUCCAAUGCAACCCACCACAUGAUGAUGCCUGAAGAGCCUUGGUUUUUUG [G51A U96A],-4.59
19,GACCAAUCUGCCCUCAGAGCUCGAGAACAUCUUCGGAUGCAGAGGAGGCAAGCUUCGGUGGCGCGAUAGCGCCAACGUCCUCAACCUCCAAUGCAUCCCACCACAAGAUGAUGCCUGAAGAGCCUUGGUUUUUUG [G51A U106A],-2.35
20,GACCAAUCUGCCCUCAGAGCUCGAGAACAUCUUCGGAUGCAGAGGAGGCAAGCUUCGGUGGCGCGAUAGCGCCAACGUCCUCAACCUCCAAUGCAUCCCACCACAUGAUGACGCCUGAAGAGCCUUGGUUUUUUG [G51A U112C],-2.05
21,GACCAAUCUGCCCUCAGAGCUCGAGAACAUCUUCGGAUGCAGAGGAGGCAAGCUUCGGUGGCGCGAUAGCGCCAACGUCCUCAACCUCCAAUGCAUCCCACCACAUGAUGAGGCCUGAAGAGCCUUGGUUUUUUG [G51A U112G],-3.74
